From the nanobody polyreactivity screen of Harvey et al. (2022)

Assay: yeast display, Sf9 membrane polyspecificity reagent, FACS + sequencing; frameworks hold sequencing errors
In short: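 Polyreactivity labels are assigned by the sorting gate from which each nanobody was recovered. The gates were low and high (top ~1%), set on anti-HA fluorescence for expression and streptavidin fluorescence for reagent binding. Before sorting, galactose-induced (36–48 hours) yeast display cells were stained for 1 hour at 4 °C with 10% biotinylated, detergent-solubilized Sf9 membrane reagent.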

QVQLVESGGGLVQAGGSLRLICPASGRTFQYYAMGWYRQAPGKERELVAAIDDSDGDTYYADSVKGRFTISRDYATNTVYLQMISLKPEDTAVYYCAAVDGWTYTGSDYWGQGTQVTVSS
polyreactivity (PSR sort gate): low polyreactivity

QVQLVESGGGLVQAGGSLRLSCAASGSISTYNDSGWYRQAPGKEREFVASITLSTGRTDYADSVKGRFTISRDNAKNTVYLQMNSLKPEETAVYVCSVRDYARKYLTSFDYWGQGTQVTVSS
polyreactivity (PSR sort gate): high polyreactivity

QVQLVESGGGLVQAGGSLRLSCAASGLTFSVYAMGWYRQAPGKERELVASISSGGTSTYYADSVKGRFTISRDNAKNTVYLQMNSLKPEDTAVYYCAAYSYYTGDQYSYDYWGQGTQVTVSS
polyreactivity (PSR sort gate): low polyreactivity

QVQLVESGGGLVQAGGSLRLSCAASGLTFSPYAMGWYRQAPGKERELVAAISYSGGSTYYADSVKGRFTISRDNAKNTVYLQMISLKPEDTAVYYCAVVVPNLLRDGRRMYYWGQGTQVTVSS
polyreactivity (PSR sort gate): high polyreactivity

QVQLVESGGGLVQAGGSLRLTCAASGRIFWRNAMGWYRQAPGKVREFVAAITGTGGSTYYADSVKGRFTISRDTAKNTVYLQMNSLKPEDTAVYYCAARWDYSYRYRLYYWGQGTQVTVSS
polyreactivity (PSR sort gate): high polyreactivity

QVQLVESGGGLVQAGGSLRLSCAASGSIFGYYAMGWYRQEPGKERELVAAITRSGGSTYYADSVKGRFTISRDNAKNPVYLQMNSLKPEDTAVYYCNAVRYAVRLPAFPGYDYWGQGTQVTVSS
polyreactivity (PSR sort gate): high polyreactivity

QVQLVESGGGLVQAGGSLRLSCAASGSTFWLYAMGWYRQAPGKERELVATISERGGSTYYADSVKGRFTISRDNAKNTVYLQMNSLKPEDTAVYYCAADQFHYPRGRRYDYWGQGTQVTVSS
polyreactivity (PSR sort gate): low polyreactivity

QFQLEESGGGLVQAGGSLRLSCAASARIFLNYAMGWFRQAPGKEMELVAAIRSASSTYYADSVKGRFTISRDNAKNTVYLQMNSLKAEDTAVYYCARLRYFLLNGSLRYGSSDRDYWGQGTQVTVSS
polyreactivity (PSR sort gate): high polyreactivity

QVQLVESGGGLVQAGGSLRLSCAASGFTFNRYAMGWYRQAPGKERELVAAIRSRGGSTYYADSVKGRFTISRDNAKNTVYLQMNSLKPEDTAVYYCAARSFQFYRFDYWGQGTQVTVSS
polyreactivity (PSR sort gate): high polyreactivity

QVQIEESGGGLVQAGGSLRLSCAASGSIFVVYALGWYRPAPGKERELVAGISRNGGRTYYADSVKGRFTISRDNAKITVYLQMNILKPEDTAVYYCNAYRPSRHDYWGQGTQVTVSS
polyreactivity (PSR sort gate): high polyreactivity

QVQLVESGGGLVQAGGSLRLSCAASGRPFRGNAMGWYRQAPGKERQLVAAITGTGGSTYYADSVKGRFTISRDNAKNTVYLQMNSVKPEDTAVYYCAAVLRGHNGLNFEYWGQGTQVTVSS
polyreactivity (PSR sort gate): high polyreactivity

QVQLVESGGGLVQAGGSLRLSCAASGSTFIWNAMGWYRQAPGKVRELVAAISSGGSTYYADSVKGRFTISRDNAKNTVYLQMNSLKPEDTAVYYCAAEYVYNVSEQRYAVYSTDDYWGQGSQVTVSS
polyreactivity (PSR sort gate): low polyreactivity

QVKLVESGGGLVQAGGSLRLSCAASGITIRFNAMGWYRQAPGKERELVPAITSSGGRTYYADSVKVRFTISRDNAKNTVYLQMNSLKPEDTAVYYCAAYYRYSTTEDRSVYRGYYYWGQGTQVTVSS
polyreactivity (PSR sort gate): high polyreactivity

QEQLQESGGGLVQAGGSLRLSSAASGSISGSSTMGWYRQAQGKERELVASIAVGANTNYADSAKGRFTISRDNAKNTVYLQMNSLKPEDTAVYYCAVDYYIYYFHYWGQGTQVTVSS
polyreactivity (PSR sort gate): high polyreactivity

QVQLVESGGGLVQAGGSLRLSCAASGSTFGLYGMGWYRQAPGKERELVAAITYSGGGTYYADSVKGRFTISRDNAKNTVYLQMNSLKPEDTAVYYCAAEYYSSITGWYYYWGQGTLVTVSS
polyreactivity (PSR sort gate): low polyreactivity

QVQLVESGGGLVQAGGSLRLSCAASGFIFSYNAMGWYRQAPGKERELVATITRRGGGTTYADSVKGRFTISRDNAKNTVYLQMNSLKPEDTAGYYCNRDDNRKHSFGSVGYDYWGQGTQVTVSS
polyreactivity (PSR sort gate): low polyreactivity

QVQLVESGGGLVQAGGSLRLICAASGRTFSTYAMGWYRQAPGKERELVAAISSGGGRTYYADSVKGRFTISRDNAKNTVYLQMNSLKPEDTAVYYCAADRYVRSRRSYEYWGQGTQVTVSS
polyreactivity (PSR sort gate): low polyreactivity

QVQLVESGGGLVQAGGSLRLSCAASGRTFSRNAMGWYRQAPGKERELVAAISQSGGRTYYADSVKGRFTISRDNAKNTVYLQMNSLKPEDTAVYYCAAAGTRKALTEYDYWGQGTQVTLSS
polyreactivity (PSR sort gate): high polyreactivity

QVQLVQSGGGLVQAGGSHRLSCAASGSTFKPYALGWYRQSPGKETELVAASSRGTRTYADSVKGRFTISRDNAKNTVYLQMNSVKPEDTAVYYCAAEWRLTFGYHYEFDYWGQGTQVTVSS
polyreactivity (PSR sort gate): low polyreactivity

QVQLVESGGGLVQAGGSLRLSCAASGNILHYYTMGLYRQAPGKETELVARINYSTGSTYYADSVKGRFTISRDNAKNTVYLQMNSLKPEDTAVYYCAAEKERDEEYDYWGQGTQVTVSS
polyreactivity (PSR sort gate): low polyreactivity

QVQLVESGGGLVQAGGSLRLSCAASGSTFTYYAMGWYRQAPGKERELVAAIRNGGSTNYADSVKGRFTISRDNAKNTVYFQMNSLKPEDTAVSYCAADQYYYTQPCDMDYWGQGTQVTVSS
polyreactivity (PSR sort gate): high polyreactivity

QDQLVESGGGLVQAGGSLRLSCAASGRNFKYYGMRRYRQAPVKERDLVAAISRGSSTNYADSVKGRFTISRDNAKKTVYLQMYSLKPEDTAVYYCAVSLRRGGSGYAYDNWGQGTQVTVSA
polyreactivity (PSR sort gate): high polyreactivity

QVQLVESGGGLVQAGGSLRLSCAASGGIFYSYAMGWYRQAPGKERELVAAISGRGGSTYYADSVKGRFTISRDNAKNTVYLQMNSLKPEDTAVYYCNALGSQRYDYWGQGTQVTVSS
polyreactivity (PSR sort gate): high polyreactivity

QLQLVESGRGLVQAGGSLRLSCAASGLIFGNYAKRSYRQPPGKESELVAAITSTGITYYADSVKGRFTISRDNAKNTVYLQMTSLKPEDTAVYYCAAASRFHPDRGGYWGQGTQVTVSS
polyreactivity (PSR sort gate): low polyreactivity

QVQLVESGGGLVQAGGSLRLSCAASGFIFAGYAMGWYRQAPGKERELVAAISRRGGRTNYADSVKGRFTISRDNAKNTVYLQMNSLKPEDTAVFYCAAVQASVYYGLGRFDYWGQGTQVTVSS
polyreactivity (PSR sort gate): high polyreactivity

QVQLVESGGGLVQAGGSLRLSCAASGFIFRTNAMGWYRQAPGKERELVAAISRSGNTYYADSVKGRFTISRDNAKNTVYLQMNSLKPEDTAVYYCNAGWYGAYRWYRSDYWGQGTQVTVSS
polyreactivity (PSR sort gate): high polyreactivity

QVQLVESGGGLVQAGGSLSLTCAASGITFPRNAMGWSRQAPGKERELVAAISARGGNTYYADSVKGRFTISRDNSKNTVYLQMNSLKPEDTAVYYCNALGSSYSEPSEYDYWGQGTQVTVSS
polyreactivity (PSR sort gate): low polyreactivity

QVQLVESGGGLVQAGGSLRLRFAASGSIFVRNALGWYRQAPGKERELVAAITYSGSRTYSADSVKGRFTISRDNAKNTVYLQMNSLKPEETAVYYCAKVRVLVDKWSTFYEYYYWGQGTQVTVSS
polyreactivity (PSR sort gate): low polyreactivity

QVQLEESGGGLFQAGGSLRLSCAASGTTQNGYTMGWYRQAPGKEREMVATINRGSSTHYADSVKGRFTISRDNAKNTVYLQMNSLKPEDTAVYYCNKRYPLGTEYYYLGQGTQVTVSS
polyreactivity (PSR sort gate): high polyreactivity

QVQLVESWGGLVQAGGSLRLSCAASGFTFLNYAMGWYRQAPGKERELVAAISFSTGRTYYADSVKGRFTISRDNAKNTDYLQMNSLKPEDTAVYYGAAGYWPGYSLTYRGGYWGQGTQVTVSS
polyreactivity (PSR sort gate): high polyreactivity

QVQLVESGGGLVQAGGSLRLSCAASGLTFYRYAMGWYRQAPGKERELVAAIRVSGNTYYADSVKGRFTISRDNAKNTVYLQMNSLKPEDTAVFYCAAIPYYFYGMDYWGQGTQVTVSS
polyreactivity (PSR sort gate): high polyreactivity

QVQLVESGGGLVQAGGSLRLSCAASGSTFCRNAMGWYRQAPGKERELVAAISRRGGSTYYADSVKGRFTISRDNAKNTVYLQMTSLKPEDTAVYYCYRDSSYKHNYDYWAQGTQVTVSS
polyreactivity (PSR sort gate): high polyreactivity

QVQHLESGGGLVQAGGSLRLSCAASGFTFGYYAMGWYRQAPGKEREFVATISYGTGSTYYADSVKGRFTISRDNAKNTVYLQMNSLKPEDTAVYYCNADTWPGEYNGYFSGAYDYWGQGTQVTVSS
polyreactivity (PSR sort gate): high polyreactivity

QVQLVESGGGLVQAGGSLRLSCAASGRTFDDNAMGWYRQAPGKERELVAAINFTGGSTYYADSVKGRFTISRDNAQNTVSLQMNSLKPEDTAVYYCAVRPGYYCGYWPRFGYWGQGSQVTVSS
polyreactivity (PSR sort gate): low polyreactivity

QVHLVESGGGLVQAGGSLRLSCAASGRILGDYAMGWYRQAPGKEREFVAAIDYNGGSTNYADSVKGRFTISRDNAKNTVYLQMNSLKPEDTAVYYCAAPGFPSRNGFGYWGQGTQVTVSS
polyreactivity (PSR sort gate): low polyreactivity

QVQLVESGGGLVQAGGSLRLSCAASGSTFRYNAMGWYRQAPGKERELVAGISYRGGTTYYADSVKGRFTISRDNAKNTVYLQMNSLKPEDTAVYYCAAGASSPGGWFYYWGQGTQVTVSS
polyreactivity (PSR sort gate): high polyreactivity

QVQLVESGGGLVQAGGSLRLSCAASGRILSYNAMGCYRQAPGKERELVAGISWSGGSTYYADSVKGRFTISRDNAKNTVYLQMNSLKPEDTAVYYCNKLQGLTWYNSPYGYWGQGTQVTVSS
polyreactivity (PSR sort gate): high polyreactivity

QVQLVESGGGLVQAGGSLRLSCAASGRISKGYAMGWYRPAPGKERELVAAISWRTSSTYYADSVKGRFTISRDNAKNTVYLQMNSLKPEANAVYYCAAETWLGSWRQVGMDYWGQGTQVTVSS
polyreactivity (PSR sort gate): high polyreactivity

QVQLVESGGGIVQAGGSLRLSCAASGFIFDSYAMGWYRQAPGKERELVAAITTSGGRTYYADSVKGRFTISRDNAKNTVYLQMNSLKPEDTAVYYCAAKYTARWGFDYWGQGTQVTVSS
polyreactivity (PSR sort gate): high polyreactivity

QVQLVESGGGLVQAGGSLRLSCAASGRTFSVNAMGWYRQAPGKERELVAAISSGGGTNYADSVKGRFTISRDNAKNNVYLQMNSLKPEDTAVYYCAARTFGYPSHRKEMEYWGQGTQVTVSS
polyreactivity (PSR sort gate): low polyreactivity

QVQLVESGGGLVQAGGSLRLSCAASGSTFKRYAMGWYRQAPGKERELVAAIRRGGITNYADSVKGRFTISRDNAKNTVYLQINSLKPEDTAVYYWAATSIYSNYYREGYWGQGTQVTVSS
polyreactivity (PSR sort gate): low polyreactivity

QVQLVESGGGLVQAGGSLRLSCPASGSIFYYYAMGWYRQEPGKERELVATITWNGAGTFYADSVKGRFTISRDNAKNTVYLQMNSLKPEDTAVYYCAASWYGESGYDYWGQGSQVTVSS
polyreactivity (PSR sort gate): low polyreactivity

QVQLVESGGGLVQAGGSLRLSCAASGFTLGFYAMAWYRPAPGKERELVAAINWRGGSTYYADSVKGRFTISRYNAKNTVYLQMNSLKPADTAVYYSNRVYRPSLYDYWGQGTQVSVSS
polyreactivity (PSR sort gate): high polyreactivity
